# Reference: patent US20210009686A1 (BEIJING XUANYI PHARMASCIENCES, published 2021)
# Numbering of substitutions follows the chain as printed.
# B1: chimeric Ab 1-B13-A (antibody, V domains shown)
# VH: QVQLQQSGAELARPGASVKLSCKASGYTFTVWSMSWVKQRTGQGLQWIGEIYPKSGNTHYNEKFKGKATLTADKSSSTVYMQLSSLTSEDSAVYFCARAYYGNSFAYWGQGTLVTVPA
# VL: DIVMTQSPSPLTVTAGEKATMSCKSSQSLLNSGNQRNYLTWYQQKPGQPPKLLIYWASTRESGVPDRFTGSGSGTDFSLTISSVQAEDLAVYYCQNDFIYPFTFGSGTKLEIK
# B2: chimeric Ab 4-N1-A (antibody, V domains shown)
# VH: EVQLVNSGGGLVKPGGSRKLSCAASGFTFSDYGMHWVRQAPEKGLEWVAYISSGSSTIYYADTMKGRFTISRDNAKNTLFLQMTSLRSEDTAMYYCARFVRGNSMDYWGQGTSVTVSS
# VL: DIVMTQSPSSLTVTAGEKVTMSCKSSQSLLNSGNQKNYLTWYQQKPGQPPKLLIYWASTRESGVPDRFTGSGSGTDFTLTISSVQAEDLTVYYCQNAYSYPLTFGAGTKLELK
# B3: chimeric Ab 7-A21-A (antibody, V domains shown)
# VH: B2 VH with N6E, H35Y, V48L, S56N, M64V, F99I, V100A, S104A
# VL: B2 VL with T90A, A97D, S99I, E111G
# B4: chimeric Ab 9-C6-A (antibody, V domains shown)
# VH: B2 VH with N6E
# VL: B2 VL with M21L, G47R, S83N
# B5: chimeric Ab 7-B15-A (antibody, V domains shown)
# VH: B2 VH with N6E, V48I, Y50H, S104A, M105L
# VL: B2 VL with S22N, A97G
# B6: chimeric Ab 7-E20-A (antibody, V domains shown)
# VH: B2 VH with N6E, Y59H, A61V, V100A, S104T, M105L
# VL: B2 VL with L30F, S32T, A97G
# B7: chimeric Ab 5-J22-A (antibody, V domains shown)
# VH: B2 VH with N6E, Y50H, S56N, T57I, Y59H, M64L, V100A, S104T
# VL: B2 VL with Y100F
# notes: also called 5-22-A
# B8: chimeric Ab 10-K12-A (antibody, V domains shown)
# VH: B2 VH with N6E, H35F, A49G, T57N, M64V, F99I, V100A, S104A
# VL: B2 VL with T90A, V91I, A97D, S99F
# B9: hybridoma clone 1-H16-A (antibody, V domains shown)
# VH: B2 VH with N6E, H35Y, Y50F, Y60C, M64V, F99I, V100A, S104A
# VL: B2 VL with K18R, Q35L, S83T, T90A, A97D, S99F
# B10: hybridoma clone 7-G17-A (antibody, V domains shown)
# VH: B2 VH with N6E, A24V, H35Y, M64V, I70M, F99I, V100A, S104A
# VL: B2 VL with A15P, L30F, K36R, T40A, T90A, A97D, S99F
# B11: hybridoma clone 9-N14-A (antibody, V domains shown)
# VH: B2 VH with N6E, H35Y, V48L, S56N, T57N, M64V, F99I, V100A, S104A, T115I
# VL: B2 VL with T90A, A97D, S99I, E111G
# B12: hybridoma clone 10-P12-A (antibody, V domains shown)
# VH: EIQLQQSGAELVKPGTSVKISCKASGYSFTGYNMNWVKQSHGKSLEWIGNINPYYSNTNYNQRFKGKATLTVDKSSSTAYMQLNSLTSEDSAVYYCARHVRGNSFDYWGQGTTLTVSS
# VL: DIVMTQSPSSLTVTAGERVTVGCKSRQSLFNSENQKNYLSWYQQKPGQPPKLLLYWTSTRESGVPERFTGSGSGTDFTLTISSVQAEDLAVYYCQNNYIYPFTFGSGTKLEIK
# Biological target: T1, claudin 18.2 (CLDN18.2) (human)
# T1 construct: also called Claudin 18 isotype 2; HEK293-CLDN18.2
# Experiment: in-cell ELISA, HEK293-CLDN18.2 cells
# Procedure: (§1) In-cell ELISAs were performed as follows: 5×10³ HEK293-CLDN18.2 cells were seeded per well in a poly-L-lysine-coated 96-well plate. The plates were then incubated at 37° C. with 5% CO₂ for 2 days. Following incubation, culture media was removed from each well, and the HEK293-CLDN18.2 cells were blocked with 200 μl blocking buffer (3% BSA/PBS (pH 7.4)) per well for 1 hour at room temperature. Each hybridoma supernatant was incubated with cells at room temperature for 1 hour. Cells were gently washed 3 times with 200 μl PBS (pH 7.4) containing 1 mM Ca²⁺ and 0.5 mM Mg²⁺. Next, cells were incubated with 100 μl of HRP-conjugated goat anti-human IgG (H+L) antibody for 1 hour at room temperature. Following the incubation, the cells were washed three times with 200 μl PBS (pH 7.4) containing 1 mM Ca²⁺ and 0.5 mM Mg²⁺. 100 μl of 1-Step™ Ultra TMB-ELISA Substrate was added to each well, and the reactions were stopped by addition of 50 μl of stop solution. OD₄₅₀ was measured using CLARIOStar microplate reader. The in-cell ELISAs were repeated for each clone using HEK293-CLDN18.1 cells.
# The in-cell ELISAs were performed as described above. […] Cells were washed, and analyzed by FACS.
row,EC50 [µg/mL],Binder
1,0.059,B1
2,0.059,B2
3,0.23,B3
4,0.491,B4
5,0.066,B5
6,0.198,B6
7,0.065,B7
8,0.05,B8

# Biological target: T1, claudin 18.2 (CLDN18.2)
# Experiment: in-cell ELISA, hybridoma supernatant on HEK293-CLDN18.2 cells
# Procedure: as §1
row,OD450/µg IgG [OD450/µg IgG],Binder
1,14.2,B9
2,30.8,B10
3,34.4,B11
4,29.4,B12

# Biological target: T2, claudin 18.1 (CLDN18.1) (human, UniProt P56856 1-261)
# T2 construct: also called HEK293-CLDN18.1
# T2 sequence (P56856 whole entry): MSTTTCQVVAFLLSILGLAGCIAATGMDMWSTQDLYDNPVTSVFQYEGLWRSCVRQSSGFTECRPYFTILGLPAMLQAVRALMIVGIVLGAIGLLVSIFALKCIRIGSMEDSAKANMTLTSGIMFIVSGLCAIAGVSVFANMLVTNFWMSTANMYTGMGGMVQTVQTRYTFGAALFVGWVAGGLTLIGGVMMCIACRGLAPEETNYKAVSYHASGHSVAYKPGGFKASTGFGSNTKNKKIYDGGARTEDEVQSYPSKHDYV
# Experiment: FACS, hybridoma supernatant on HEK293-CLDN18.1
# Source text: (§2) Ten days after fusion, hybridoma supernatants were screened by FACS against HEK293-CLDN18.2, HEK293-CLDN18.1 and HEK293.
row,MFI,Binder
1,28300,B9
2,12900,B10
3,10600,B11
4,20100,B12

# Biological target: T1, claudin 18.2 (CLDN18.2)
# Experiment: FACS, HEK293-CLDN18.2 cells
# Procedure: The interaction of 20 purified chimeric antibodies with CLDN18.2 was assessed by in-cell ELISAs and FACS using HEK293-CLDN18.2 cells. […] The FACS assays were performed as follows: Serial dilutions for each antibody clone shown in Tables 7 and 8 were prepared and stained with HEK293-CLDN18.2 cells on ice for 30 min, with final antibody concentrations of 10 g/ml, 3 g/ml, 1 g/ml, 0.3 μg/ml, 0.1 μg/ml, 0.03 μg/ml, 0.01 μg/ml, and 0 μg/ml. […] Cells were washed, and analyzed by FACS.
row,EC50 [µg/mL],Binder
1,0.036,B1
2,0.029,B2
3,0.134,B3
4,0.032,B4
5,0.032,B5
6,0.05,B6
7,0.023,B7
8,0.075,B8

# Biological target: T1, claudin 18.2 (CLDN18.2)
# Experiment: FACS, hybridoma supernatant on HEK293-CLDN18.2;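 also: flow cytometry of hybridoma supernatants taken 10 days after fusion, applied to HEK293 cells stably expressing CLDN18.2, with MFI standing for mean fluorescence intensity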
# Source text: as §2
row,MFI,Binder
1,121000,B9
2,136000,B10
3,64000,B11
4,131000,B12

# Biological target: T2, claudin 18.1 (CLDN18.1)
# Experiment: in-cell ELISA, hybridoma supernatant on HEK293-CLDN18.1 cells
# Procedure: as §1
row,OD450/µg IgG [OD450/µg IgG],Binder
1,1.05,B9
2,6.7,B10
3,3.14,B11
4,4.3,B12
